Data on one substance can be found in article PMC8548916.

This test deals with Cnm1 (contact nucleus mitochondria 1) tagged with GFP on its C terminus (S. cerevisiae). In words: co-IP; GFP-Trap beads precipitate Cnm1-GFP from cleared yeast lysate (1% digitonin, 150 mM NaCl, 50 mM Tris-HCl pH 8.0, 5% glycerol, 1 mM MgCl2), 1 h at 4°C; Western blot with antibodies against GFP and mCherry; enrichment by densitometry. On the technique in general: In western blotting, separated proteins are transferred to a membrane and probed.

“Tom70 tagged with mCherry on its C terminus (from UniProt P07213 1-617) (natural protein)” had a fold enrichment in the immunoprecipitate relative to Tom20 of 2 fold.
